Source: the supplement of paper PMC12764529
± gives the half width of the 95% confidence interval.

Experiments:
[1] = folding stability dG unfold from trypsin proteolysis; higher = more stable
Method in brief: (§1)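 Designed mini-proteins with no cysteine and under 80 residues were kept only if AlphaFold2 dimer inter-PAE was above 15. In a PA-tagged cDNA display construct, they were digested with trypsin and chymotrypsin and then sequenced. K50 was inferred by Bayesian fitting of counts, and unfolding free energy was derived per protease or combined against a sequence-predicted unfolded-state K50 and a shared folded-state K50.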

[2] = folding stability dG unfold from chymotrypsin proteolysis; higher = more stable
Method in brief: as §1

[3] = folding stability dG unfold (combined trypsin and chymotrypsin); higher = more stable
Method in brief: as §1

Sequence | folding stability dG unfold [1] [kcal/mol] | folding stability dG unfold [2] [kcal/mol] | folding stability dG unfold [3] [kcal/mol]
SAGGYYKDPNGKPREPVPKVEPKPVTITFPNLTPEQADYLADYLRDLGLEVKYDPENGMLTAEFWIYSAGGS [r16_765_TrROS] | 1.23 ± 0.033 | 1.95 ± 0.077 | 1.71 ± 0.11
SAGHQIVKRLARHMQEQGYPIEVDVTVEPYPDDGWVEITIDIEMQNEDGKWQPIGPITIYIPKEDANKLSAG [r5_413_TrROS] | 0.914 ± 0.07 | 1.44 ± 0.11 | 1.34 ± 0.17
SAGIEEVAKEIAETLEELLPSEYKILDAKAIPLPDDVVIVPITVQKFDPNGKPLGELQFVVVIPPGEASAGG [r19_28_TrMRF] | 0.639 ± 0.068 | 0.519 ± 0.096 | 0.636 ± 0.062
SAGIEIRIEAYMPWEEARDQVKEIARWLMSMFPGFKVDIDVDHEPVPNNMWVATVTIKIEPLPPGQPIFSAG [r5_936_TrROS] | 3.83 ± 0.1 | 4.79 ± 0.066 | 4.56 ± 0.12
SAGIKIEVEPSPGNGWYRIRIENPDLRKKLNEKFPDLKEITFPFKNPEDMPWEEMREHAIDQIKEFLPSAGG [r19_298_TrROS] | -0.197 ± 0.29 | 1.03 ± 0.15 | 0.64 ± 0.24
SAGIKPGDPVVIKFNVPPELREKIKEAFEKPGYEYEFHPETGEVTVVAPAENIDELMKLPYIEEIVPGSAGG [r19_212_TrMRF] | 0.891 ± 0.052 | 0.768 ± 0.1 | 0.817 ± 0.15
SAGIPLGPEQLRALAEELAEEFKKKLAEELGLSPEDIKLLSIRRLPDGSIEIELEIPDRTYRYTFPLPDSAG [r5_565_JUSTAS] | 3.2 ± 0.17 | 3.02 ± 0.042 | 3.1 ± 0.16
SAGIPPDDPNDIYIVPVKITPVPDGSLQIEIIIVWPDGEVYTMEQEFDPNGNIEEMDMEPMPPEDIKESAGG [r19_285_TrROS] | 1.1 ± 0.1 | 1.31 ± 0.081 | 1.2 ± 0.14
SAGKAELVEVTIEGDKLTALFKIPETGGLVLAEAEFDNGIVKVKAKFYSPSGKPLGEAEFTLPASELKLSAG [r5_308_TrMRF] | 1.83 ± 0.1 | 2.73 ± 0.067 | 2.48 ± 0.12
SAGKAIFTVVPIIPKTGKKYSISKFEITLKEGEKIPIKAIADKIPPKNYIVETEIHPDHIHVTVYVLDGSAG [r5_269_TrMRF] | 0.665 ± 0.08 | 1.61 ± 0.11 | 1.25 ± 0.17
SAGKALSPEELARYVREKYGLPADAPITIEEVPGKYTLSLPDLRVEVTVTDDTTTVTLRPPDPGPEAALSAG [r5_190_JUSTAS] | 0.97 ± 0.044 | 1.57 ± 0.16 | 1.42 ± 0.14
SAGKARIVEYDEESGTITIEVDGKTIEIELAPGETAEITLEENEDGTLTLTITVNGKTLTLTIPLDDLKSAG [r5_500_TrROS_Hall] | 2.61 ± 0.18 | 3.47 ± 0.12 | 3.15 ± 0.13
SAGKEEAEKNKIAVLHLELYHPDGTKVSITIAFHPDKPEAVIEELTKLGYPLKDLIKNHPDLKILKIEPSAG [r5_430_TrMRF] | 1.71 ± 0.092 | 1.57 ± 0.044 | 1.71 ± 0.11
SAGKEKKPPKKVTLTLEIEIEVPEEEEEKAKELAEELEEELRKLGIEKVEVEYDKETKRVRIRVTVVLPSAG [r5_512_TrROS_Hall] | 2.22 ± 0.086 | 3.01 ± 0.094 | 2.74 ± 0.36
SAGKEKVLVIPVKVKPGEKIVVKVPSNSKILIIDLESGEIYEIDVPENVEPVFILPENKEYLIAVVFKSAGG [r19_78_TrMRF] | 2.66 ± 0.081 | 3.92 ± 0.086 | 3.38 ± 0.11
SAGKEVEIKIEIVIKMTPEELKKLAEELAKKLKEAGFEVEVTVEEKEVNGELYAVITVTVRLPPGAKPPSAG [r5_217_TrROS_Hall] | 2.81 ± 0.36 | 4.11 ± 0.26 | 3.67 ± 0.42
SAGKFKIVKVEIKDGKITITVKNEKTGELVKKEITFDKKTKKLKIKLYNKNGKLIKEETKTLSLEELKKSAG [r5_308_TrROS_Hall] | 2.06 ± 0.093 | 2.66 ± 0.071 | 2.49 ± 0.096
SAGKFPFMIKIEDKDGKPKDEIPIPAEELQDDPEKFLEIVETIADEFSKDGYRVKIYFPGTGQPIEIPISAG [r14_972_TrROS] | 0.418 ± 0.2 | 1.32 ± 0.15 | 0.859 ± 0.2
